Positions count from the first letter of the chain named. In names and notes the source's numbering stands.

For one data set, the system named is SL 7838. The data set can be described thus: Effect of prodrugs on the delivery strain SL 7838. The settings on record: CB 1954 15 μM.
For the next data set, the target named is T1, ChrR (Escherichia coli, UniProt P0AGE6, E57D/G167S).
T1 construct: made in house; host or cells: E. coli BL21 (DE3)
The class given is biochemical, E. coli. The settings on record: CNOB versus CB 1954. From the text:
To evaluate if CNOB competes with CB 1954 on the active site of the enzyme we performed a competition assay.

Data set [1] has as its system HeLa cells. The experiment in a line: Confocal imaging of CNOB reduction in HeLa cells infected with SL 7838 expressing GFP and Y6. The class given is cell-based, Human. The conditions noted are these: HeLa cells infected with SL 7838 expressing GFP and Y6 (FIG. 8).
For data set [2], the system named is HeLa cells. The conditions noted are these: for HeLa cell killing by CNOB: CNOB as prodrug, pure protein (FIG. 7).
Data set [3] deals with HeLa cells. The data set can be described thus: Cell survival assay using SL 7838 to deliver the wild type or evolved enzymes. The settings on record: for amount of bacteria required / killing of surface-adhered HeLa-luc cells: SL 7838 expressing the enzyme, 15 μM CB 1954, 1 h + 3 h incubation, luciferase read-out (FIG. 6). The class given is cell-based, Human.
From the text: Cell survival assay, using SL 7838 to deliver the wild type or evolved enzymes. SL 7838 contains deletions in the aroA and sopE genes. This strain is non-pathogenic in immunocompetent mice, but can colonize and persist in solid tumors. The strain was transformed with appropriate plasmids to express the yief (now chrR), nfsA or theY6 (now chrR6)-encoding yieFY6 gene. It was also transformed with a vector containing the lux operon, expressing the bacterial luciferase (product of the luxR gene) and its substrate. HeLa cells stably transfected to express firefly luciferase were added to black walled 96-well plates at a density of 1000 cells well^−1. Once the cells had attached, a dilution series of non-transformed SL 7838 or SL 7838 transformed with plasmids expressing the appropriate genes (Table 1) was added to the plates; 0.5 mM IPTG was added to induce the genes on the plasmids. After 1 h incubation, 15 μM CB 1954 was added. Light output per well produced from bacterial luciferase (no additional substrate added) or bacterial and firefly luciferase (following addition of 2 μl of 30 mg ml^−1 luciferin per well) was measured on an IVIS50 system (Xenogen Corp.). Percentage HeLa cell survival was determined by calculating firefly luciferase expression (total light output—bacterial light output) relative to wells containing unchallenged HeLa cells or HeLa cells treated with 70% ethanol. All experiments were performed at least in triplicate; error bars in the figures are SEM.
SL 7838 as a delivery vehicle to tumor cells. […] We tested the S. typhimurium strain 7838 (SL 7838), transformed with different plasmids (see Methods), as a potential vehicle to attain this objective. IPTG was used to induce the wild type and mutant enzymes encoded by the plasmids. […]
Further analysis was performed to test the efficiency of SL 7838 to deliver the enzymes to surface-adhered HeLa cells. […] After a further 3 h incubation period the firefly luciferase substrate (luciferin) was added, and the light output was used to quantify HeLa cell survival (FIG. 6).
Data set [4] has as its system HeLa cells. The data set can be described thus: Viability test: prodrug activated by purified enzyme, loss of HeLa cell viability.
Method: Viability tests. As mentioned in the Results section, these involved two incubation periods, prodrug activation, followed by assay of the toxic moiety generated by determining the loss of HeLa cell viability. […] Following prodrug reduction at 37° C., 0.5 ml of fresh HeLa cells (˜0.5-1×10^5) were added. The duration of the prodrug reduction was 30 min in all experiments; the HeLa cell exposure periods were as specified in the text. After the latter incubation, 20 μl of the color reagent, CellTiter 96®AqueousOne (PROMEGA Inc) were added to 100 μl aliquots of the reaction mixture. Following an additional 1 h of incubation, A490 was measured in a BioTek microplate S330 reader.
Prodrug activation by wild type YieF and the evolved enzymes. […] The experiments involved two incubation periods. In the first period, the enzyme and the drug were incubated to generate the toxic species; in the second period, which was initiated with the addition of HeLa cells to the reaction mixture, the extent of drug activation was inferred from the loss of HeLa cell viability. In the experiments described in this section, both the prodrug reduction and the subsequent cell exposure periods were of 30 min duration, and the enzyme and drug concentrations were 50 μg ml^−1 and 15 μM, respectively. […]

`NC(=O)c1cc(N2CC2)c([N+](=O)[O-])cc1[N+](=O)[O-]` [CB 1954, 5-aziridinyl-2,4-dinitrobenzamide]: the “effect on replication of SL7838” value in the data set with SL 7838 is “did not inhibit replication”.

With `O=c1c(Cl)c2oc3cc([N+](=O)[O-])ccc3nc-2c2ccccc12` [CNOB], at ChrR, the “mode of inhibition in competition assay” value is reported as “competitive inhibitors of each other”. In the data set on HeLa cells [1], the “bystander effect (red fluorescence in uninfected cells)” value is given as “effective bystander effect”. Besides, the “prodrug efficiency in in vitro cytotoxicity assays” value with HeLa cells [2] (compared with CB1954) is given as “same efficiency as CB1954”.

B1: Y6: evolved YieF enzyme with four substitutions: V120A, Y128N, T160N and Q175L (protein, UniProt P0AGE6 1-188, looked up, variant V120A Y128N T160N Q175L)
Quinone reductase: MSEKLQVVTLLGSLRKGSFNGMVARTLPKIAPASMEVNALPSIADIPLYDADVQQEEGFPATVEALAEQIRQADGVVIVTPEYNYSVPGGLKNAIDWLSRLPDQPLAGKPVLIQTSSMGAIGGARCQNHLRQILVFLDAMVMNKPEFMGGVIQNKVDPQNGEVIDQGTLDHLTGLLTAFGEFIQRVKI
Regarding B1, the “amount of bacteria required / killing of surface-adhered HeLa-luc cells” value with HeLa cells [3] is “at least an order of magnitude less bacteria”. The “reduction in survival of HeLa cells” value in the data set with HeLa cells [3] (in the presence of CB 1954 (15 μM), enzyme expressed by SL 7838 bacteria, IPTG induced (FIG. 5)) was determined as 90%. Besides, the “HeLa cell killing by CNOB” value in the data set with HeLa cells [2] is listed as “more active”. In addition, the “greater reduction in HeLa cells survival compared to the controls” value in the data set with HeLa cells [4] (15 μM MMC or CB 1954, 50 μg ml^−1 enzyme (FIG. 1)) is roughly 90%. The “activity for prodrug reduction relative to wild type” value in the data set with HeLa cells [4] (MMC or CB 1954 (FIG. 1)) is recorded as “improved activity for prodrug reduction”.

B2: YieF: native E. coli NAD(P)H oxidoreductase ChrR (formerly called YieF), SEQ ID NO:1 (protein)
chain: B1 Quinone reductase with E57D, A120V, N128Y, N160T, G167S, L175Q
modifications: E. coli
Regarding B2, in the data set on HeLa cells [3], the “amount of bacteria required / killing of surface-adhered HeLa-luc cells” value is on record as “scarcely greater than seen in controls”. Also, the “HeLa cell killing by CNOB” value in the data set with HeLa cells [2] is reported as “significant increase of cell killing compared to the control”.

The record behind these values is US7687474B2, “Nitroreductase enzymes” (The Board of Trustees of the Leland Stanford Junior …, priority 2005, dated 2010).
